± gives the standard deviation of the averaged measurements.
Columns and labels:
Saccharomyces cerevisiae [1] = assay: protein stability index of tFT-peptide fusion in wild type (PSI (0-1 scale)); higher = more stable (slower turnover); settings: genetic background: wild type
Experimental: (§1)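 MPS profiling in S. cerevisiae of two library types built from selected 12-aa C-degron peptides (IN1, IN2, LN1, LN3, VN2, R1-R5, W1-W3, Atg1 and Rpa12 C-termini): saturation mutagenesis libraries and C-terminal +1 capping libraries (13 aa). Each peptide is fused to the C-terminus of a sfGFP-mCherry timer, after a GGGS linker. Cells are FACS-sorted into 8 mCherry/sfGFP bins and sequenced. PSI runs from 0 (unstable) to 1 (stable), measured once in wild type and in the das1Δ or doa10Δ background.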

Saccharomyces cerevisiae [2] = assay: protein stability index of tFT-peptide fusion in deletion strain of DAS1 (PSI (0-1 scale)); higher = more stable (slower turnover)
Experimental: as §1

Saccharomyces cerevisiae [3] = assay: protein stability index of tFT-peptide fusion (C-terminal peptide) (PSI (0-1 scale)); higher = more stable (slower turnover); settings: temperature: 30 C
Experimental: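 MPS profiling in S. cerevisiae of the yeast C-terminome library: the last 12 aa of each annotated ORF are fused to the C-terminus of a sfGFP-mCherry timer, after a GGGS linker. Cells are FACS-sorted into 8 mCherry/sfGFP bins and deep-sequenced. PSI runs from 0 (unstable) to 1 (stable); wild type and das1Δ backgrounds, two technical replicates each.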

[4] = genetic background: das1 deletion
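Throughout, for protein stability index of tFT-peptide fusion in deletion strain of DAS1: PSI is a weighted mean of each variant's read distribution over the sorted stability bins, computed only for variants having over 10 reads in total.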
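Throughout, for protein stability index of tFT-peptide fusion in wild type: PSI derived as read-weighted mean over the 8 sorting bins, only variants exceeding 10 total reads kept, mCherry placed adjacent to the peptide and sfGFP distal.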

Row | Sequence | protein stability index (Saccharomyces cerevisiae [1]) | protein stability index (Saccharomyces cerevisiae [2]) | protein stability index (Saccharomyces cerevisiae [3]; [4]) | protein stability index (Saccharomyces cerevisiae [3]; genetic background: wild type)
1 | CTSCGYKFRTQN | 0.201 | 0.663 |  | 
2 | LKGLRQKMNHQN | 0.196 | 0.669 |  | 
3 | KKHKKRQKQKIN | 0.0558 | 0.587 |  | 
4 | FSMRWPFRYWVN | 0.0756 | 0.569 |  | 
5 | CTSCGYKFHTNN | 0.429 | 0.713 |  | 
6 | DLIQPLPVQFLN | 0.127 | 0.59 |  | 
7 | KSHKKGQKQKIN | 0.119 | 0.6 |  | 
8 | RLIQPLPVQFLF | 0.247 | 0.779 |  | 
9 | FSMRWTFRYWVF | 0.0705 | 0.439 |  | 
10 | FSMRWIFRYWVN | 0.163 | 0.535 |  | 
11 | FSMRWTFRPWVN | 0.245 | 0.6 |  | 
12 | RLIQMLPVQFLN | 0.0223 | 0.626 |  | 
13 | PSVAASFWRVVG | 0.142 | 0.679 |  | 
14 | CTSQGYKFRTNN | 0.251 | 0.678 |  | 
15 | PSLAASWWRVVG | 0.179 | 0.693 |  | 
16 | NHFHYDCVYRYC [YOR333C C-terminal 12 aa] |  |  | 0.6939 ± 0.0038 | 0.404 ± 0.03
17 | ILHERNIPLEKI [TPT1 C-terminal 12 aa] |  |  | 0.709 ± 0.021 | 0.701 ± 0.048
18 | FSFTEEPRIVMI [DCD1 C-terminal 12 aa] |  |  | 0.689 ± 0.02 | 0.699 ± 0.03
19 | ITLESGSYKFQD [SRP40 C-terminal 12 aa] |  |  | 0.695 ± 0.025 | 0.639 ± 0.0026
20 | HNDNSGTVLGTA [RBD2 C-terminal 12 aa] |  |  | 0.7 ± 0.017 | 0.728 ± 0.032
21 | VETELEMVAEKA [YEH1 C-terminal 12 aa] |  |  | 0.646 ± 0.0079 | 0.665 ± 0.061

Row | Sequence | protein stability index (Saccharomyces cerevisiae [1]) | protein stability index (Saccharomyces cerevisiae [2]) | protein stability index (Saccharomyces cerevisiae [3]; [4]) | protein stability index (Saccharomyces cerevisiae [3]; genetic background: wild type)
22 | EEGPFKADHYRY [SAH1 C-terminal 12 aa] |  |  | 0.701 ± 0.011 | 0.694 ± 0.033
23 | SKLNAVHTANEK [SEC8 C-terminal 12 aa] |  |  | 0.712 ± 0.016 | 0.686 ± 0.022
24 | EGEISKGAENAT [YDR444W C-terminal 12 aa] |  |  | 0.676 ± 0.015 | 0.689 ± 0.011
25 | NEGSEEEPEIDQ [BDP1 C-terminal 12 aa] |  |  | 0.6878 ± 0.0019 | 0.702 ± 0.037
26 | IEALYKLVEEKM [NQM1 C-terminal 12 aa] |  |  | 0.701 ± 0.017 | 0.6797 ± 0.0027
27 | VFTPFLFGELIG [ERG1 C-terminal 12 aa] |  |  | 0.718 ± 0.0073 | 0.712 ± 0.035
28 | VSIKKLGRKLEN [FYV6 C-terminal 12 aa] |  |  | 0.727 ± 0.023 | 0.6469 ± 0.0013
29 | VTNPKGRLALEA [RPL32 C-terminal 12 aa] |  |  | 0.6613 ± 0.0025 | 0.686 ± 0.026
30 | QMSAMTEKFGKL [YKL068W-A C-terminal 12 aa] |  |  | 0.726 ± 0.0095 | 0.693 ± 0.015
31 | SRVVLSQGDSDD [TOF1 C-terminal 12 aa] |  |  | 0.68424 ± 0.00057 | 0.662 ± 0.026
32 | DGVENTPVESQQ [NMD3 C-terminal 12 aa] |  |  | 0.6821 ± 0.0024 | 0.707 ± 0.0061
33 | IQISDVSMSPSL [PEX31 C-terminal 12 aa] |  |  | 0.6811 ± 0.00011 | 0.717 ± 0.019
34 | YIDDIDQTIPKY [UBA4 C-terminal 12 aa] |  |  | 0.7441 ± 0.0062 | 0.686 ± 0.0073
35 | RFLDYVRELESF [PDX1 C-terminal 12 aa] |  |  | 0.698 ± 0.014 | 0.70618 ± 0.0004
36 | RVGQTNSPSDSQ [DFM1 C-terminal 12 aa] |  |  | 0.706 ± 0.0087 | 0.695 ± 0.049
37 | LVVARDMLLASL [SPC25 C-terminal 12 aa] |  |  | 0.6474 ± 0.0048 | 0.624 ± 0.024
38 | AEFLGSFDELVL [EEB1 C-terminal 12 aa] |  |  | 0.72333 ± 5e-06 | 0.719 ± 0.018
39 | LNKKSSVKILLY [CMS1 C-terminal 12 aa] |  |  | 0.693 ± 0.01 | 0.614 ± 0.0071
40 | IYYMEQMLGKTQ [HSK3 C-terminal 12 aa] |  |  | 0.696 ± 0.038 | 0.696 ± 0.024
41 | FSAGNYKLPPGI [KTR3 C-terminal 12 aa] |  |  | 0.68 ± 0.011 | 0.7009 ± 0.0015
42 | LWNLSDNCKNTV [MMS1 C-terminal 12 aa] |  |  | 0.707 ± 0.02 | 0.7014 ± 0.0061

Row | Sequence | protein stability index (Saccharomyces cerevisiae [1]) | protein stability index (Saccharomyces cerevisiae [2]) | protein stability index (Saccharomyces cerevisiae [3]; [4]) | protein stability index (Saccharomyces cerevisiae [3]; genetic background: wild type)
43 | KARPFKCSDKKQ [MZM1 C-terminal 12 aa] |  |  | 0.718 ± 0.016 | 0.72792 ± 0.00048
44 | IQELVNTIRELQ [YPL077C C-terminal 12 aa] |  |  | 0.69 ± 0.018 | 0.642 ± 0.0078
45 | QAKKSNSCCIIM [YKT6 C-terminal 12 aa] |  |  | 0.732 ± 0.034 | 0.766 ± 0.06
46 | LRRFIICQLHLI [YBR027C C-terminal 12 aa] |  |  | 0.523 ± 0.02 | 0.139 ± 0.0035
47 | EISNRDENSIPE [MUB1 C-terminal 12 aa] |  |  | 0.7214 ± 0.004 | 0.677 ± 0.026
48 | PSNASNTTTRRP [YKR045C C-terminal 12 aa] |  |  | 0.703 ± 0.032 | 0.6901 ± 0.0053
49 | KHIDYRHAPGNI [RRN10 C-terminal 12 aa] |  |  | 0.6875 ± 0.0066 | 0.69587 ± 0.00057
50 | IGELLEGIRMSI [BIT2 C-terminal 12 aa] |  |  | 0.694 ± 0.012 | 0.729 ± 0.091
51 | SNHECSQINLLE [YCL021W C-terminal 12 aa] |  |  | 0.695 ± 0.018 | 0.688 ± 0.017
52 | LMGAALAAVIFL [FIT1 C-terminal 12 aa] |  |  | 0.672 ± 0.018 | 0.668 ± 0.026
53 | ARKFWTEDNNNL [STE2 C-terminal 12 aa] |  |  | 0.72 ± 0.023 | 0.691 ± 0.039
54 | KHVSGKILGFVY [RPS22A C-terminal 12 aa] |  |  | 0.631 ± 0.045 | 0.63 ± 0.02
55 | IVRPLELKYFGR [FCY22 C-terminal 12 aa] |  |  | 0.7236 ± 0.0033 | 0.688 ± 0.04
56 | CPLCRSEIPFRR [RKR1 C-terminal 12 aa] |  |  | 0.75 ± 0.028 | 0.724 ± 0.039
57 | VPELTEKLGKYK [AIM45 C-terminal 12 aa] |  |  | 0.697 ± 0.019 | 0.676 ± 0.026
58 | GSLLLGLISFLL [EGT2 C-terminal 12 aa] |  |  | 0.669 ± 0.0091 | 0.6486 ± 0.0054
59 | SLQKIDATYIRG [SDS22 C-terminal 12 aa] |  |  | 0.702 ± 0.017 | 0.687 ± 0.017
60 | IDKFLDHIGKSQ [FBP1 C-terminal 12 aa] |  |  | 0.698 ± 0.025 | 0.703 ± 0.012
61 | ALDKYLIEIHHW [NPR3 C-terminal 12 aa] |  |  | 0.718 ± 0.041 | 0.728 ± 0.013
62 | ANTDKNNNPPGN [SNG1 C-terminal 12 aa] |  |  | 0.698 ± 0.016 | 0.751 ± 0.07
63 | GAVYFFSKARKA [COX26 C-terminal 12 aa] |  |  | 0.7207 ± 0.0023 | 0.654 ± 0.037

Row | Sequence | protein stability index (Saccharomyces cerevisiae [1]) | protein stability index (Saccharomyces cerevisiae [2]) | protein stability index (Saccharomyces cerevisiae [3]; [4]) | protein stability index (Saccharomyces cerevisiae [3]; genetic background: wild type)
64 | ITKSSNKFVNNV [YNL043C C-terminal 12 aa] |  |  | 0.665 ± 0.022 | 0.736 ± 0.091
65 | IHYLLHIERERK [YOR385W C-terminal 12 aa] |  |  | 0.683 ± 0.037 | 0.681 ± 0.014
66 | KRDIVFAASLYL [SKI2 C-terminal 12 aa] |  |  | 0.6855 ± 0.0061 | 0.739 ± 0.12
67 | RSTFLMHGRLAT [MAK3 C-terminal 12 aa] |  |  | 0.707 ± 0.02 | 0.702 ± 0.019
68 | KLTSTVTLNLLY [YGR107W C-terminal 12 aa] |  |  | 0.692 ± 0.019 | 0.697 ± 0.029
69 | RRRASKNAFRGM [ENP2 C-terminal 12 aa] |  |  | 0.696 ± 0.02 | 0.692 ± 0.014
70 | IDIPISVRQVTK [BUL1 C-terminal 12 aa] |  |  | 0.707 ± 0.0073 | 0.696 ± 0.013
71 | SRRFYRKIDHLA [YLR400W C-terminal 12 aa] |  |  | 0.699 ± 0.02 | 0.507 ± 0.018
72 | ICKALVKQDLGL [LAP2 C-terminal 12 aa] |  |  | 0.6972 ± 0.002 | 0.657 ± 0.035
73 | AQGEKDAAATAN [TOM22 C-terminal 12 aa] |  |  | 0.677 ± 0.019 | 0.6591 ± 0.0032
74 | EYMIERCRGHVL [YPL108W C-terminal 12 aa] |  |  | 0.708 ± 0.032 | 0.753 ± 0.04
75 | GETIRVNYGSTQ [YJR154W C-terminal 12 aa] |  |  | 0.685 ± 0.0089 | 0.689 ± 0.039
76 | CSPVLFSLLNIA [LCB3 C-terminal 12 aa] |  |  | 0.699 ± 0.012 | 0.674 ± 0.087
77 | LFVTDGSLLLDL [EDC3 C-terminal 12 aa] |  |  | 0.703 ± 0.014 | 0.685 ± 0.032
78 | SQPDYKYLFDTQ [YRM1 C-terminal 12 aa] |  |  | 0.71 ± 0.027 | 0.623 ± 0.025
79 | AMSARKLSAARK [PCH2 C-terminal 12 aa] |  |  | 0.677 ± 0.015 | 0.666 ± 0.025
80 | LKLNHSFATIFK [MCM21 C-terminal 12 aa] |  |  | 0.684 ± 0.018 | 0.677 ± 0.024
81 | QYVLYKNEAGDK [AIM39 C-terminal 12 aa] |  |  | 0.689 ± 0.017 | 0.698 ± 0.019
82 | GQTSRTVTPAPN [ITC1 C-terminal 12 aa] |  |  | 0.726 ± 0.026 | 0.6887 ± 0.0059
